# Assay results taken from article PMC3149649, “Evidence for a Two-Metal-Ion Mechanism in the Cytidyltransferase KdsB, an Enzyme Involved in Lipopolysaccharide Biosynthesis” (PLoS ONE, 2011).
# B1: LPS-specific CMP-Kdo synthetase (KdsB) from Aquifex aeolicus (enzyme)
# chain: MRRAVIIPARLGSTRLKEKPLKNLLGKPLIRWVVEGLVKTGERVILATDSERVKEVVEDLCEVFLTPSDLPSGSDRVLYVVRDLDVDLIINYQGDEPFVYEEDIKLIFRELEKGERVVTLARKDKEAYERPEDVKVVLDREGYALYFSRSPIPYFRKNDTFYPLKHVGIYGFRKETLMEFGAMPPSKLEQIEGLEQLRLLENGIKIKVLITENYYHGVDTEEDLKIVEEKLKNL
# notes: CMP-Kdo synthetase KdsB (EC 2.7.7.38) of Aquifex aeolicus; the structure describes residues 2-234 (N-terminal domain 2-91 and 220-234, C-terminal domain 100-210); monomer 27 kDa by SDS-PAGE; No tag is mentioned; In the crystal the protein carries CTP and two Mg2+ ions; also called AA-LCKS; CKS
# Biological target: the molecule itself
# Assay: SEC; analytical gel filtration chromatography of purified AA-LCKS; conditions not given
protein,measurement,value
B1,stoichiometry N,2
